Test in all cases: cell-based or functional assay
Experiment [1] has as its target HIV-1 Env of isolate MGRM-C-022 (HIV-1).
The target of experiment [2] is HIV-1 Env of isolate 98CN009 (HIV-1).
Experiment [3] has as its target HIV-1 Env of isolate MGRM-AG-005 (CRF_AG), on pseudovirus (HIV-1).
Experiment [4] addresses HIV-1 Env of isolate MGRM-C-009 (HIV-1).
In experiment [5] the target is HIV-1 Env of isolate MGRM-Chronic-B-002 (HIV-1).
The target of experiment [6] is HIV-1 Env of isolate PVO.4 (HIV-1).
The target of experiment [7] is HIV-1 Env of isolate 92TH021 (CRF01_AE), on pseudovirus (HIV-1).
Experiment [8] has as its target HIV-1 Env of isolate MGRM-Chronic-B-001 (HIV-1).
Experiment [9] has as its target HIV-1 Env of isolate MGRM-A-013 (clade A), on pseudovirus (HIV-1).
Experiment [10] deals with HIV-1 Env of isolate MGRM-D-019 (HIV-1).
For experiment [11], the target named is HIV-1 Env of isolate 92WR024 (HIV-1).
The target of experiment [12] is HIV-1 Env of isolate MGRM-AG-012 (CRF_AG), on pseudovirus (HIV-1).
Experiment [13] addresses HIV-1 Env of isolate MGRM-C-023 (HIV-1).
For experiment [14], the target named is HIV-1 Env of isolate MGRM-F1-006 (subtype F), on pseudovirus (HIV-1).
Experiment [15] deals with HIV-1 JR-CSF Env E466A (HIV-1 (isolate JR-CSF)) (UniProt P20871).
The target of experiment [16] is HIV-1 Env of isolate 92WR009 (HIV-1).
Experiment [17] addresses HIV-1 JR-CSF Env F468A (HIV-1 (isolate JR-CSF)) (UniProt P20871).
Experiment [18] addresses HIV-1 Env of isolate MGRM-AE-007 (CRF01_AE), on pseudovirus (HIV-1).

Chain of 5345_I01 (PGT-137) (antibody) (VH): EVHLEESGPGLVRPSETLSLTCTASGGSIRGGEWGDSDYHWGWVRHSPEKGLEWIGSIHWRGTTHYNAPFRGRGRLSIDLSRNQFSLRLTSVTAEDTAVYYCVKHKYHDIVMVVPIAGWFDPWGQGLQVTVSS
Chain of 5345_I01 (PGT-137) (antibody) (VL): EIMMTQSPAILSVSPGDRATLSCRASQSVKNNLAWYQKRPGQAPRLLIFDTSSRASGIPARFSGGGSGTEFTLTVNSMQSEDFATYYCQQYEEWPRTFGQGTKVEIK
Chain of 5329_C19 (PGT-136) (antibody) (VH): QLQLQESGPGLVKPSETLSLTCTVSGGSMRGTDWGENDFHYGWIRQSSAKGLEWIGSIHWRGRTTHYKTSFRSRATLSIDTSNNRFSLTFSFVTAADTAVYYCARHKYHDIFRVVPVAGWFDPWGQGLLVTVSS
Chain of 5329_C19 (PGT-136) (antibody) (VL): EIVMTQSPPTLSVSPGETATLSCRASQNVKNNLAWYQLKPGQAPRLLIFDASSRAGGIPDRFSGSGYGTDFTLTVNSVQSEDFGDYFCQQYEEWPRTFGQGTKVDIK

In the case of 5114_A19 (PGT-128) (antibody), the 50% inhibitory concentration (IC50) in experiment [1] was 0.042 µg/mL; in experiment [2] it was 0.025 µg/mL; in experiment [4], more than 50 µg/mL; in [5], 0.036 µg/mL; in [6], 0.005 µg/mL; in experiment [8], more than 50 µg/mL. Moreover, the IC50 is more than 50 µg/mL in [10] and 0.026 µg/mL in experiment [13]. Besides, the IC50, single-round pseudovirus neutralization in [3] is 0.037 µg/mL; in [7] it was 0.01 µg/mL; in [9] it was 0.008 µg/mL; in experiment [12], more than 50 µg/mL; in experiment [18] it was more than 50 µg/mL. The neutralization IC50 in experiment [11] is more than 50 µg/mL; in [16], 0.812 µg/mL. In experiment [14], this substance gave an IC50, pseudovirus neutralization of 0.763 µg/mL. The Fold IC50 increase relative to wild-type in experiment [15] is 0.6 fold; in [17], 0.5 fold.
In the case of 5136_H01 (PGT-131) (antibody), the 50% inhibitory concentration (IC50) in experiment [1] is 0.78 µg/mL; in experiment [2] it was 4.05 µg/mL; in experiment [4], more than 50 µg/mL; in experiment [5], more than 50 µg/mL; in [6] it was more than 50 µg/mL; in [8], more than 50 µg/mL. In addition, the 50% inhibitory concentration (IC50) in experiment [10] was more than 50 µg/mL; in experiment [13] it was 0.143 µg/mL. Moreover, the IC50, single-round pseudovirus neutralization was 1.04 µg/mL in experiment [3]; 0.014 µg/mL in experiment [7]; more than 50 µg/mL in experiment [9]; more than 50 µg/mL in experiment [12]; 0.026 µg/mL in experiment [18]. Further, the neutralization IC50 in experiment [11] was more than 50 µg/mL; in experiment [16], 3.12 µg/mL. In experiment [14], this substance yielded an IC50, pseudovirus neutralization of more than 50 µg/mL. The figures for the Fold IC50 increase relative to wild-type in [15] and in [17] were 1.7 fold and 1.6 fold, respectively.
On to 5329_C19 (PGT-136) (antibody), for which the half-maximal inhibitory concentration (IC50) is more than 50 µg/mL in [1]; 0.428 µg/mL in experiment [2]; more than 50 µg/mL in [4]; more than 50 µg/mL in experiment [5]; more than 50 µg/mL in experiment [6]; more than 50 µg/mL in [8]. The IC50 was more than 50 µg/mL in experiment [10] and 3.2 µg/mL in experiment [13]. In addition, the IC50, single-round pseudovirus neutralization in [3], in [7], in [9], in [12] and in [18] was more than 50 µg/mL in each case. Besides, the neutralization IC50 in experiment [11] and in experiment [16] was more than 50 µg/mL each time. This substance also displayed an IC50, pseudovirus neutralization in experiment [14] of more than 50 µg/mL.
Regarding 5343_B08 (PGT-135) (antibody), the 50% inhibitory concentration (IC50) was more than 50 µg/mL in experiment [1]; 0.071 µg/mL in experiment [2]; more than 50 µg/mL in experiment [4]; more than 50 µg/mL in experiment [5]; more than 50 µg/mL in [6]; more than 50 µg/mL in experiment [8]. Besides, the results for the IC50 in experiment [10] and in [13] were more than 50 µg/mL and 0.051 µg/mL, respectively. For the same substance, the IC50, single-round pseudovirus neutralization in experiment [3] was more than 50 µg/mL; in experiment [7], more than 50 µg/mL; in experiment [9], more than 50 µg/mL; in experiment [12], 41.9 µg/mL; in experiment [18], more than 50 µg/mL. For the same substance, the neutralization IC50 in [11] and in [16] was more than 50 µg/mL throughout. In experiment [14], the IC50, pseudovirus neutralization is more than 50 µg/mL. The Fold IC50 increase relative to wild-type in experiment [15] was 0.5 fold; in [17], 1.1 fold.
5345_I01 (PGT-137) (antibody): the IC50 is more than 50 µg/mL in experiment [1]; 5.06 µg/mL in experiment [2]; more than 50 µg/mL in experiment [4]; more than 50 µg/mL in experiment [5]; more than 50 µg/mL in experiment [8]; more than 50 µg/mL in [10]. This substance returned a 50% inhibitory concentration (IC50) in [13] of 0.23 µg/mL. Moreover, the IC50, single-round pseudovirus neutralization is more than 50 µg/mL in experiment [3]; more than 50 µg/mL in experiment [7]; 49.2 µg/mL in experiment [9]; more than 50 µg/mL in experiment [12]; more than 50 µg/mL in [18]. In addition, the neutralization IC50 in [11] and in [16] was more than 50 µg/mL throughout. The IC50, pseudovirus neutralization in [14] is more than 50 µg/mL.
